# Publication PMC4648099
# Values joined by “and” are separate entries in the source; they are usually repeats but may differ in a detail not shown here. Equal values may be shown once.
# Target: thrombin (alpha-thrombin) (UniProt P00734+P00734)
# Test: competition (FAM fluorescence displacement)
# Conditions: G8 replaced by 5-nitroindole (N at position 8); Fluorescence assays: 10 mM sodium cacodylate pH 7.2, 100 mM KCl, 20 °C, 20 nM FAM-aptamer (100 nM thrombin in displacement); EMSA: 1xTBE pH 8.3, 100 mM KCl …
sequence,measurement,value
GGTTGGTNTGGTTGG [TBA-N8],Kd,2.3 nM and 1.7 nM
